Source: paper PMC10318062 (Nature Communications, 2023)

target: SARS-CoV-2 hexaproline stabilized pre-fusion spike glycoprotein (S6P) (SARS-CoV-2, ancestral (Wuhan-Hu-1 …, UniProt P0DTC2, stabilised)); test: AlphaScreen or HTRF; conditions: one partner purified

Binder	binding result
AZD8895 (sdFab) (Fab, V domains shown) VH: EVQLVQSGPEVKKPGTSVKVSCKASGFTFMSSAVQWVRQARGQRLEWIGWIVIGSGNTNYAQKFQERVTITRDMSTSTAYMELSSLRSEDTAVYYCAAPYCSSISCNDGFDIWGQGTMVTVSS VL: not shown	binds
REGN10987 (sdFab) (Fab, V domains shown) VH: QVQLVESGGGVVQPGRSLRLSCAASGFTFSNYAMYWVRQAPGKGLEWVAVISYDGSNKYYADSVKGRFTISRDNSKNTLYLQMNSLRTEDTAVYYCASGSDYGDYLLVYWGQGTLVTVSS VL: QSALTQPASVSGSPGQSITISCTGTSSDVGGYNYVSWYQQHPGKAPKLMIYDVSKRPSGVSNRFSGSKSGNTASLTISGLQSEDEADYYCNSLTSISTWVFGGGTKLTVL	binds
LY-CoV1404 (sdFab) (Fab, V domains shown) VH: QITLKESGPTLVKPTQTLTLTCTFSGFSLSISGVGVGWLRQPPGKALEWLALIYWDDDKRYSPSLKSRLTISKDTSKNQVVLKMTNIDPVDTATYYCAHHSISTIFDHWGQGTLVTVSS VL: QSALTQPASVSGSPGQSITISCTATSSDVGDYNYVSWYQQHPGKAPKLMIFEVSDRPSGISNRFSGSKSGNTASLTISGLQAEDEADYYCSSYTTSSAVFGGGTKLTVL	binds
CB6 (sdFab) (Fab, V domains shown) VH: EVQLVESGGGLVQPGGSLRLSCAASGFTVSSNYMSWVRQAPGKGLEWVSVIYSGGSTFYADSVKGRFTISRDNSMNTLFLQMNSLRAEDTAVYYCARVLPMYGDYLDYWGQGTLVTVSS VL: not shown	binds
LY-CoV555 (sdFab) (Fab, V domains shown) VH: QVQLVQSGAEVKKPGSSVKVSCKASGGTFSNYAISWVRQAPGQGLEWMGRIIPILGIANYAQKFQGRVTITADKSTSTAYMELSSLRSEDTAVYYCARGYYEARHYYYYYAMDVWGQGTAVTVSS VL: not shown	binds
REGN10933 (sdFab) (Fab, V domains shown) VH: QVQLVESGGGLVKPGGSLRLSCAASGFTFSDYYMSWIRQAPGKGLEWVSYITYSGSTIYYADSVKGRFTISRDNAKSSLYLQMNSLRAEDTAVYYCARDRGTTMVPFDYWGQGTLVTVSS VL: DIQMTQSPSSLSASVGDRVTITCQASQDITNYLNWYQQKPGKAPKLLIYAASNLETGVPSRFSGSGSGTDFTFTISGLQPEDIATYYCQQYDNLPLTFGGGTKVEIK	binds
